Reference: publication PMC7383879, “HSI2/VAL1 and HSL1/VAL2 function redundantly to repress DOG1 expression in Arabidopsis seeds and seedlings”

Target: T1, HSI2 B3 domain (B3HSI2) (Arabidopsis thaliana, UniProt Q8W4L5 295-396)
T1 sequence: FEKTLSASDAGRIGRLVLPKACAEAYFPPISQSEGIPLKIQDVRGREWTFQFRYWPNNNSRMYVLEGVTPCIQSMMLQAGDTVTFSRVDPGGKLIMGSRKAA
Experiment: EMSA; 10 mM Tris pH 7.9, 30 mM KCl, 0.1 mM EDTA, 1 mM DTT, 0.05% NP-40, 6.5% glycerol, 50 ng/ml (so in the source) poly(dIdC), 50 fmol probe, 20 min at room temperature
Conditions: protein: recombinant; tags: His-Trx (Results); His (Methods, legend); label: 3' biotin; blunt

B1: mRY1 probe (dsDNA)
DNA 1: GTCCTCCACGTAATGGACTACTGCGTTATTTCTTTT
DNA 2: AAAAGAAATAACGCAGTAGTCCATTACGTGGAGGAC
binding result: no binding

B2: RY1 probe (dsDNA)
DNA 1: GTCCTCCACGTAATGCATGCATGCGTTATTTCTTTT
DNA 2: AAAAGAAATAACGCATGCATGCATTACGTGGAGGAC
binding result: binds
